Paper PMC3962104

Target: T1, S. cerevisiae Ump1, C-terminally 6His-tagged (wild type) (S. cerevisiae), P38293
T1 chain: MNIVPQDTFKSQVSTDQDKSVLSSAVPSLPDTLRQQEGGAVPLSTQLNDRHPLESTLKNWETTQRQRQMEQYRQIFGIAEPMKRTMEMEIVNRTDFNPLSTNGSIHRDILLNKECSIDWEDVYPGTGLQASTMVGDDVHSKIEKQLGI
Assay: non-reducing SDS-PAGE; ion-exchange peak fractions loaded in sample buffer without (-) or with (+) 10 mM DTT, 15% SDS-PAGE, Coomassie Blue; the 36 kDa species is seen when no reducing agent is added
Conditions: remark: other sources report otherwise

stoichiometry N: 2
B1: S. cerevisiae Ump1, C-terminally 6His-tagged (wild type), P38293 1-148 (natural protein)
chain: T1 chain
